Biological target: σN-NpuN-Mdm2* bait fusion (residues 17-124 of Mdm2) (UniProt Q00987)
Assay: cell-based or functional assay

Sequence of σN-NpuN-Mdm2* bait fusion (residues 17-124 of Mdm2) (Q00987 other isoform, or with tags, fused parts or gaps limits assumed): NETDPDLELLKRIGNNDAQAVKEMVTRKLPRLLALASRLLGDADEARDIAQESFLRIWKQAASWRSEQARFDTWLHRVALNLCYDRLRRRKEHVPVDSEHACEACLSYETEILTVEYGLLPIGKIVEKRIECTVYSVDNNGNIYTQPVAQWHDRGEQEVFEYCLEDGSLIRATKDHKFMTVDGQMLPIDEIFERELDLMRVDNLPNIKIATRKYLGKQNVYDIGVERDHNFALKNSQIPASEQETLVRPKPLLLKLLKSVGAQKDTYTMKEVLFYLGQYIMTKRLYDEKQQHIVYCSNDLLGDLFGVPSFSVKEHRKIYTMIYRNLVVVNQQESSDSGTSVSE

Substance: PMI-NpuC-σC peptide fusion (PMI, high affinity variant of residues 15-29 of p53)
- difference in output with against without bait and peptide when σN-NpuN was fully induced and the NpuC-σC fragment uninduced: > 200 fold

Reference: patent US20230227508A1, “SPLIT INTEIN-BASED SELECTION FOR PEPTIDE BINDERS” (priority 2020, published 2023)
